The target of assay [1] is Taxol-stabilised microtubules polymerised from porcine brain tubulin (porcine) (UniProt P02550). The experiment in a line: co-sedimentation.
In assay [2] the target is subtilisin-digested microtubules (lacking E-hooks) (porcine) (UniProt P02550). The experiment in a line: co-sedimentation.

“And” between values parts separate entries of the source, which are not always exact repeats. Equal values may be shown once.

Chain of UniProt P02550 (P02550 whole entry, looked up): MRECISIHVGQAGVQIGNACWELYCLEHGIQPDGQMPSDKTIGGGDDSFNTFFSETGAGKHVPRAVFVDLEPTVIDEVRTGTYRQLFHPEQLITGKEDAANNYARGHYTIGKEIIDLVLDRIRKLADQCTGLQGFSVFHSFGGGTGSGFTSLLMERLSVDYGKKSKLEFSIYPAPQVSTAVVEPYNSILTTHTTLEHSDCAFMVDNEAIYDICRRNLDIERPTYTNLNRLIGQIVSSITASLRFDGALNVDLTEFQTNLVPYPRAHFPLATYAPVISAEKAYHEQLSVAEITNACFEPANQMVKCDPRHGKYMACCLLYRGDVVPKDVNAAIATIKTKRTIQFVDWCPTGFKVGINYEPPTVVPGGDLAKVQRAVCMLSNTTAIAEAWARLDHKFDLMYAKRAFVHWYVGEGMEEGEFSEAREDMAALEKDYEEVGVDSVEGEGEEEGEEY

On to “KLP-18 C-stalk (C-terminal half of the KLP-18 stalk) (domain or fragment)”, for which the Shift to pellet (%) was 52.7% and 50.8% in assay [1]; 26.7% in assay [2].
MBP-MESP-1 (natural protein): in assay [1], the Shift to pellet (%) is 56.1% and 41.6%.

(Values after article PMC9635285.)
